Biological target: NMDA receptor on rat hippocampal neurons (E18 Sprague Dawley primary culture) (rat), P35439
Experiment: cell-based or functional assay

GEDDYQDAQDLIRDKSN [Peptide SEQ ID NO: 3 (…)]
IC50 of inhibition of NMDA receptor-evoked current (dose-response curve, FIG. 3H): 156 µM
inhibition of NMDA receptor-evoked current (whole-cell patch clamp), 10 µM peptide: 14%
inhibition of NMDA receptor-evoked current (whole-cell patch clamp), 100 µM peptide: 40%
inhibition of NMDA receptor-evoked current (whole-cell patch clamp), 500 µM peptide: 66.5%

— US20190085028A1
